Results reported in patent publication US20140235820A1, “METHODS AND COMPOSITIONS FOR MODULATING THE Wnt PATHWAY” (Genentech, Inc., priority 2010, published 2014).
Each block holds one molecule with its values, some of them ahead of it.

Key:
LRP6 E1E2 = biological target: T1, LRP6 E1E2 (Homo sapiens, UniProt O75581); test: Biolayer interferometry binding to LRP6 E1E2
T1 construct: construct E1E2-amino acids A20-E631 of LPR6; made in house; host or cells: Tni insect cells (baculovirus, secreted)
T1 sequence (O75581 20-631): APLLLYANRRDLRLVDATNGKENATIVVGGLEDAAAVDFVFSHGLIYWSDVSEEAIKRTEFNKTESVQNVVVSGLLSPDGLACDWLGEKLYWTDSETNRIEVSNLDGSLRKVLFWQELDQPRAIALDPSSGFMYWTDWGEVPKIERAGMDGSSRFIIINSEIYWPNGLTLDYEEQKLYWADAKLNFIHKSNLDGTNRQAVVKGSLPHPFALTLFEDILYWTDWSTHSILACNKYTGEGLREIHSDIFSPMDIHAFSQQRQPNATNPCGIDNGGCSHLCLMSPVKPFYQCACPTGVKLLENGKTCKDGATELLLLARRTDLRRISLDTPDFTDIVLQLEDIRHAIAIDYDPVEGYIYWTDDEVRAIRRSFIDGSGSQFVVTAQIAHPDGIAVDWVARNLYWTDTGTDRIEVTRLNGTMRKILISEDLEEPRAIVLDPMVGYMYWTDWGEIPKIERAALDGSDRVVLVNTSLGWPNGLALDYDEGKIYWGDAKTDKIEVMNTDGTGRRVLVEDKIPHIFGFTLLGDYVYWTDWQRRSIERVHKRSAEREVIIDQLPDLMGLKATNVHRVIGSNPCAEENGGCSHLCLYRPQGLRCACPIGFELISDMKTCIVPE
Experimental: Binding kinetics were measured by biolayer interferometry using an Octet Red instrument (ForteBio) as previously described (11). Streptavidin (SA) biosensors were loaded with biotinylated hLRP6 in 50 mMTris, pH 8, 300 mM NaCl, 5% (v/v) glycerol, and 0.05% (w/v) Triton X-100. The loaded biosensors were washed in the same buffer before carrying out association and dissociation measurements for the indicated times. The Kd of each interaction was determined using steady state-analysis through the Octet Red software v6.3. Each reported value represents an average of three or more experiments at different concentrations, with a fitted experimental curve for which the square of the correlation coefficient (R^2) is above 0.96.
The interaction of the different Dkks and sclerostin with various domains of LRP6 was measured using a biolayer interferometry assay (11). Purified receptors contained individual β-propeller-EGF-like units (E1, E2, or E4), two β-propellers (E1E2 or E3E4), or four β-propellers (E1E4))—as follows:
Human LRP6: construct E1E4-amino acids A20-Q1253 of LPR6; construct E1E2-amino acids A20-E631 of LPR6; construct E3E4 amino acids E631-Q1253 of LPR6; construct E1-amino acids A20-D325 of LPR6; construct E2-amino acids […]-E631 of LPR6; construct E4-T933-Q1253. The individual LRP6 β-propeller E3 could not be expressed.

Wnt1-dependent signaling = test: Wnt-dependent TOPbrite luciferase reporter assay, cells transfected with Wnt1; format: cell-based; details: cells stably transfected with reporter, transiently with Wnt1
Experimental: FIG. 12. Induction of a Wnt/β-catenin reporter in the presence or absence of wild-type and mutant inhibitors. Cells were transfected by Wnt1 (binds to LRP6 E1E2). Dkk1 and sclerostin variants, or the control inhibitor Fz8 CRD, were used at the indicated doses.
Wnt signaling was assessed either in mouse fibroblast L-cells or in HEK293s cells. The luciferase reporter assay in 293 cells was performed as described (52). The mouse fibroblast L-cell imaging assay was conducted essentially as described(53). Cells were treated with Wnt3a, Fz8 CRD ((US Patent Publication 20080299136; (54), LRP6, or Dkk1, or combinations of these proteins, as indicated and processed after an additional 6 h at 37° C./5% CO2.
To test whether the observed effects on binding between purified proteins were relevant to cellular signaling, Dkk1 and sclerostin activities were tested further in a Wnt-dependent TOPbrite luciferase reporter assay (52). Cells stably transfected with reporter were transfected transiently with Wnt1. The Wnt-transfected cells were treated with purified Dkk1 or sclerostin variants, and the effect on reporter induction was measured (FIG. 12). […] This is consistent with earlier observations that Wnt1 belongs to a class of Wnts signaling through the E1E2 portion of to LRP5/6 (11, 52). The Dkk1 and sclerostin mutants show activities consistent with their binding to LRP6 (FIG. 12). Sclerostin Ile119Glu (“NXI” motif) is impaired relative to wild-type in its ability to inhibit Wnt1-driven signaling, as is Dkk1 Ile42Glu.

B1: Dkk1 Ile42Glu (ligand, human, UniProt O94907 32-266, looked up)
chain: TLNSVLNSNAEKNLPPPLGGAAGHPGSAVSAAPGILYPGGNKYQTIDNYQPYPCAEDEECGTDEYCASPTRGGDAGVQICLACRKRRKRCMRHAMCCPGNYCKNGICVSSDQNHFRGEIEETITESFGNDHSTLDGYSRRTTLSSKMYHTKGQEGSVCLRSSDCASGLCCARHFWSKICKPVLKEGQVCTKHRRKGSHGLEIFQRCYCGEGLSCRIQKDHHQASNSSRLHTCQRH
notes: also called Dkk1 I42E
binding to LRP6 E1E2 (in words) (LRP6 E1E2): affect binding | inhibition of Wnt1-dependent signaling (reporter induction) (Wnt1-dependent signaling): impaired

B2: Dkk1 K211E (ligand, human, UniProt O94907 32-266, looked up)
chain: TLNSVLNSNAIKNLPPPLGGAAGHPGSAVSAAPGILYPGGNKYQTIDNYQPYPCAEDEECGTDEYCASPTRGGDAGVQICLACRKRRKRCMRHAMCCPGNYCKNGICVSSDQNHFRGEIEETITESFGNDHSTLDGYSRRTTLSSKMYHTKGQEGSVCLRSSDCASGLCCARHFWSKICEPVLKEGQVCTKHRRKGSHGLEIFQRCYCGEGLSCRIQKDHHQASNSSRLHTCQRH
notes: also called Dkk1 Lys211Glu
inhibition of Wnt1-dependent signaling (reporter induction) (Wnt1-dependent signaling): efficiently inhibits

Continued, in another order:

Kd (LRP6 E1E2; steady state, read-out: affinity for LRP6 E1E2): 22 nM
Molecule: Dkk1: Dickkopf 1 protein, Wnt pathway inhibitor, expressed in insect cells (NSNAIKN)
inhibition of Wnt1-dependent signaling (reporter induction) (Wnt1-dependent signaling): strong inhibition

binding to LRP6 E1E2 (in words) (LRP6 E1E2): binds
Molecule: sclerostin: Sclerostin protein, Wnt pathway inhibitor, expressed in insect cells (LPNAIGR)
inhibition of Wnt1-dependent signaling (reporter induction) (Wnt1-dependent signaling): strong inhibition
